This passage reports intracellular cGMP levels, EC50, Kd and EC50 results from US20080181903A1, “CONJUGATE OF NATRIURETIC PEPTIDE AND ANTIBODY CONSTANT REGION” (PDL BioPharma, Inc., priority 2006, published 2008).

In test [1] the target is NPR-A receptor expressed on transfected cells. Kind of test: cell-based or functional assay.
Test [2] concerns the target NPR-A-Fc receptor fusion protein (human). Kind of test: SPR (BIAcore), NPR-A-Fc captured by anti-human Fc, analyte injected, 1:1 Langmuir fit. (In SPR one partner is held on a chip, and binding of the other changes the refractive index at the surface.)
For test [3] the target is unchanged. Kind of test: BIAcore surface plasmon resonance; NPR-A-Fc captured by immobilized goat anti-human Fc gamma antibody, analyte injected; 1:1 Langmuir fit.
For test [4] the target is unchanged. Kind of test: SPR (BIAcore), NPR-A-Fc captured by anti-human Fc, analyte injected, 1:1 Langmuir fit; experiment with Fc-Uro.
For test [5] the target is unchanged. Kind of test: SPR (BIAcore), NPR-A-Fc captured by anti-human Fc, analyte injected, 1:1 Langmuir fit; experiment with Uro-Fc.
The target of test [6] is T1, purified NPR-A-Fc fusion protein (extracellular domain of the receptor NPR-A) (Homo sapiens, UniProt P16066).
T1 construct: Expression construct encoding for the extracellular domain of the receptor NPR-A fused to the DNA encoding for the Fc domain of human immunoglobulin; made in house
T1 sequence (P16066 33-473 limits assumed): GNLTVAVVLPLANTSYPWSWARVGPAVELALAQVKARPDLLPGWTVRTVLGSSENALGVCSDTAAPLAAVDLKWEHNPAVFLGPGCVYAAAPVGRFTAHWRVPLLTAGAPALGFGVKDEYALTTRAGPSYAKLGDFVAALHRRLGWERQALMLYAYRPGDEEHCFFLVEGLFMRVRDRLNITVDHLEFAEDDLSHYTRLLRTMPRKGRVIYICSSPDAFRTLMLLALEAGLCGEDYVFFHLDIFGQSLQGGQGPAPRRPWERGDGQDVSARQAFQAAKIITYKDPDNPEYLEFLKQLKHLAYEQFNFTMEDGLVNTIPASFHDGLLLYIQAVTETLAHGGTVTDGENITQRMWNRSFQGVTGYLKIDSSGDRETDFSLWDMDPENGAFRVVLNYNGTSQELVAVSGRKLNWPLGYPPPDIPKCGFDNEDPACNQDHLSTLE
Kind of test: BIAcore natriuretic peptide receptor (NPR) binding assay. The settings on record: Fc-Uro vs ularitide comparison (FIG. 2B), n=6, read-out: Binding affinities (KD) on the NPR-A receptor.
Experimental: Kinetics measurements for analytes resulting in estimates of binding affinity constants (KD) were performed using BIAcore 2000 & 3000 instruments and methods recommended by the manufacturer (BIAcore, Sweden). […] Purified NPR-A-Fc receptor fusion proteins were captured by goat anti-human Fcγ (GAHFc) antibodies (Jackson ImmunoResearch, Cat 109-005-098) immobilized onto the sensorchip surface. The unoccupied GAHFc after the capture was shielded from analytes by the injection of human Fc (huFc, Jackson ImmunoResearch, Cat 009-000-008). Analytes were injected to obtain an association phase followed by injection of HBS-P running buffer (10 mM HEPES, 150 mM sodium chloride, 0.005% P-20 surfactant, pH 7.4) to monitor dissociation for each binding cycle.
The binding kinetics of each analyte-receptor pair was calculated from a global analysis of sensorgram data collected from different analyte concentrations using the BIAevaluate program (BIAcore, Sweden). The affinity (KD) resulting from association (ka) and dissociation (kd) of each analyte against each receptor was obtained by simultaneously fitting the association and dissociation phases of the sensorgram from the analyte concentration series using the same 1:1 Langmuir model from the BIAevaluate software (BIAcore, Sweden).

A further test deals with T2, NPR-A receptor (Homo sapiens, UniProt P16066).
T2 construct: expressed in transfected cells; host or cells: mammalian tissue culture cells (e.g., 3T12 cells)
T2 sequence (P16066 33-1061): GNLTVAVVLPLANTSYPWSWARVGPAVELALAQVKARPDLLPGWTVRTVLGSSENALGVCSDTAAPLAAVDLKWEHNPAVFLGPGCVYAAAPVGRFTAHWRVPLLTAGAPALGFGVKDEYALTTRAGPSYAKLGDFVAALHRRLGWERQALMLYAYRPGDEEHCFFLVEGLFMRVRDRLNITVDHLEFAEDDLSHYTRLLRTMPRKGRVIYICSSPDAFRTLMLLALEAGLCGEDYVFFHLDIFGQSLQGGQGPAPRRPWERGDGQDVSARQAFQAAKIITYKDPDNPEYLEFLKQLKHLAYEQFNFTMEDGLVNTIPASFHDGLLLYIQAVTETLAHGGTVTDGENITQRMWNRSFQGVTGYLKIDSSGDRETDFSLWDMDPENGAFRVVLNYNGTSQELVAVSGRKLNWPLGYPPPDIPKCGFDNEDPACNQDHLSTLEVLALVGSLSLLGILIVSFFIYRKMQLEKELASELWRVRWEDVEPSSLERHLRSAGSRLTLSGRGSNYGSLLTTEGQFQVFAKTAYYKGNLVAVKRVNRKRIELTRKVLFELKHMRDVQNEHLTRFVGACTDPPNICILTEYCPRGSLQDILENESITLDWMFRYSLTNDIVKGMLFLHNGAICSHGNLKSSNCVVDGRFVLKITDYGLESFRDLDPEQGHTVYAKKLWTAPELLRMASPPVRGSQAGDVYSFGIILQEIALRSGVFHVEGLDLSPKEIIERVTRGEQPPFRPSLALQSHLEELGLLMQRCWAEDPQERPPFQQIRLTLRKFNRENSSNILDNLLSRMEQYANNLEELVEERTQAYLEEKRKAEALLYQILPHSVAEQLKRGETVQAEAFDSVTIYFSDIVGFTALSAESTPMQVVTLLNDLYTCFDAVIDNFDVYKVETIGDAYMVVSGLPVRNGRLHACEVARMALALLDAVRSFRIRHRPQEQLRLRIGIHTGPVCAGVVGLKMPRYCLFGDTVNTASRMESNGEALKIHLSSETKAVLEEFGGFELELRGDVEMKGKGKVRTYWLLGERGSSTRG
Kind of test: NPR-A receptor activation, intracellular cGMP in transfected cells. The test is classed as cell-based. The settings on record: cells expressing NPR-A; Fc-Uro vs ularitide (FIG. 3B); read-out: EC50 of cGMP induction.

Turning to “Uro-Fc(huFcG1(m1)) fusion protein (Fc fusion)”, the intracellular cGMP levels, EC50 in test [1] is 26.3 nM. Also, the Kd is 7000 nM in test [2] and 0.007 nM in test [3].

As for ularitide (peptide), the dissociation constant Kd stood at 0.0042 nM in test [4], 3100 nM in test [5] and 0.0031 nM in test [3].

On to “Fc-Uro(huFcG1(m1)) fusion protein (from UniProt P01857 104-330) (Fc fusion)”, for which, in test [1], the intracellular cGMP levels, EC50 was found to be 86 nM. The Kd in test [2] is 0.35 nM.

B1: Fc-Uro(huFcG1(m1)): fusion protein: Fc portion of variant human immunoglobulin heavy constant gamma 1 at amino terminus and human urodilatin at carboxy terminus (protein)
chain: DKTHTCPPCPAPEAEGAPSVFLFPPKPKDTLMISRTPEVTCVVVDVSHEDPEVKFNWYVDGVEVHNAKTKPREEQYNSTYRVVSVLTVLHQDWLNGKEYKCKVSNKALPAPIEKTISKAKGQPREPQVYTLPPSRQELTKNQVSLTCLVKGFYPSDIAVEWESNGQPENNYKTTPPVLDSDGSFFLYSKLTVDKSRWQQGNVFSCSVMHEALHNHYTQKSLSLSPGKTAPRSLRRSSCFGGRMDRIGAQSGLGCNSFRY
Regarding B1, in test [6], the dissociation constant (Kd) came out at 0.35 ± 0.1 nM. Besides, the EC50 in the test with NPR-A receptor came to 86 nM.

As a reminder, the Kd is the constant that tells how readily two partners part at equilibrium. A word on the EC50: it is the concentration that produces a half-maximal response.
